According to patent US20210009686A1 (BEIJING XUANYI PHARMASCIENCES, published 2021):

Key:
claudin 18.2 (CLDN18.2) [1] = molecular target: T1, claudin 18.2 (CLDN18.2) (human); assay: FACS, HEK293-CLDN18.2 cells
T1 construct: also called Claudin 18 isotype 2; HEK293-CLDN18.2
Experimental: The interaction of 20 purified chimeric antibodies with CLDN18.2 was assessed by in-cell ELISAs and FACS using HEK293-CLDN18.2 cells. […] The FACS assays were performed as follows: Serial dilutions for each antibody clone shown in Tables 7 and 8 were prepared and stained with HEK293-CLDN18.2 cells on ice for 30 min, with final antibody concentrations of 10 g/ml, 3 g/ml, 1 g/ml, 0.3 μg/ml, 0.1 μg/ml, 0.03 μg/ml, 0.01 μg/ml, and 0 μg/ml. […] Cells were washed, and analyzed by FACS.

claudin 18.2 (CLDN18.2) [2] = molecular target: T1, claudin 18.2 (CLDN18.2); assay: in-cell ELISA, HEK293-CLDN18.2 cells
Experimental: (§1) In-cell ELISAs were performed as follows: 5×10³ HEK293-CLDN18.2 cells were seeded per well in a poly-L-lysine-coated 96-well plate. The plates were then incubated at 37° C. with 5% CO₂ for 2 days. Following incubation, culture media was removed from each well, and the HEK293-CLDN18.2 cells were blocked with 200 μl blocking buffer (3% BSA/PBS (pH 7.4)) per well for 1 hour at room temperature. Each hybridoma supernatant was incubated with cells at room temperature for 1 hour. Cells were gently washed 3 times with 200 μl PBS (pH 7.4) containing 1 mM Ca²⁺ and 0.5 mM Mg²⁺. Next, cells were incubated with 100 μl of HRP-conjugated goat anti-human IgG (H+L) antibody for 1 hour at room temperature. Following the incubation, the cells were washed three times with 200 μl PBS (pH 7.4) containing 1 mM Ca²⁺ and 0.5 mM Mg²⁺. 100 μl of 1-Step™ Ultra TMB-ELISA Substrate was added to each well, and the reactions were stopped by addition of 50 μl of stop solution. OD₄₅₀ was measured using CLARIOStar microplate reader. The in-cell ELISAs were repeated for each clone using HEK293-CLDN18.1 cells.
The in-cell ELISAs were performed as described above. […] Cells were washed, and analyzed by FACS.

claudin 18.1 (CLDN18.1) [3] = molecular target: T2, claudin 18.1 (CLDN18.1) (human, UniProt P56856 1-261); assay: FACS, hybridoma supernatant on HEK293-CLDN18.1
T2 construct: also called HEK293-CLDN18.1
Text: (§2) Ten days after fusion, hybridoma supernatants were screened by FACS against HEK293-CLDN18.2, HEK293-CLDN18.1 and HEK293.

claudin 18.2 (CLDN18.2) [4] = molecular target: T1, claudin 18.2 (CLDN18.2); assay: in-cell ELISA, hybridoma supernatant on HEK293-CLDN18.2 cells
Experimental: as §1

claudin 18.2 (CLDN18.2) [5] = molecular target: T1, claudin 18.2 (CLDN18.2); assay: FACS, hybridoma supernatant on HEK293-CLDN18.2;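 also: flow cytometry of hybridoma supernatants taken 10 days after fusion, applied to HEK293 cells stably expressing CLDN18.2, with MFI standing for mean fluorescence intensity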
Text: as §2

claudin 18.1 (CLDN18.1) [6] = molecular target: T2, claudin 18.1 (CLDN18.1); assay: in-cell ELISA, hybridoma supernatant on HEK293-CLDN18.1 cells
Experimental: as §1

T2 sequence (P56856 whole entry): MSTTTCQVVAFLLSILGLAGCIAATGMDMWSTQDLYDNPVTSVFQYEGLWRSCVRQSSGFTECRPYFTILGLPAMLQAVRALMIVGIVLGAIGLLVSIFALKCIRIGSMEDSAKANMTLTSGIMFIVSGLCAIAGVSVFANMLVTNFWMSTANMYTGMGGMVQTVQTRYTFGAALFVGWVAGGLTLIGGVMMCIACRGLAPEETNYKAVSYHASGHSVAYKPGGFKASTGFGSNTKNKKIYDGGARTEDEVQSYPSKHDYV

Binder | EC50 (claudin 18.2 (CLDN18.2) [1]) | EC50 (claudin 18.2 (CLDN18.2) [2]) | MFI (claudin 18.1 (CLDN18.1) [3]) | OD450/µg IgG (claudin 18.2 (CLDN18.2) [4]) | MFI (claudin 18.2 (CLDN18.2) [5]) | OD450/µg IgG (claudin 18.1 (CLDN18.1) [6])
chimeric Ab 4-N1-A (antibody, V domains shown) VH: EVQLVNSGGGLVKPGGSRKLSCAASGFTFSDYGMHWVRQAPEKGLEWVAYISSGSSTIYYADTMKGRFTISRDNAKNTLFLQMTSLRSEDTAMYYCARFVRGNSMDYWGQGTSVTVSS VL: DIVMTQSPSSLTVTAGEKVTMSCKSSQSLLNSGNQKNYLTWYQQKPGQPPKLLIYWASTRESGVPDRFTGSGSGTDFTLTISSVQAEDLTVYYCQNAYSYPLTFGAGTKLELK | 0.029 µg/mL | 0.059 µg/mL | – | – | – | –
hybridoma clone 1-H16-A (antibody, V domains shown) VH: EVQLVESGGGLVKPGGSRKLSCAASGFTFSDYGMYWVRQAPEKGLEWVAFISSGSSTIYCADTVKGRFTISRDNAKNTLFLQMTSLRSEDTAMYYCARIARGNAMDYWGQGTSVTVSS VL: DIVMTQSPSSLTVTAGERVTMSCKSSQSLLNSGNLKNYLTWYQQKPGQPPKLLIYWASTRESGVPDRFTGSGSGTDFTLTISTVQAEDLAVYYCQNDYFYPLTFGAGTKLELK | – | – | 28300 | 14.2 OD450/µg IgG | 121000 | 1.05 OD450/µg IgG
hybridoma clone 7-G17-A (antibody, V domains shown) VH: EVQLVESGGGLVKPGGSRKLSCAVSGFTFSDYGMYWVRQAPEKGLEWVAYISSGSSTIYYADTVKGRFTMSRDNAKNTLFLQMTSLRSEDTAMYYCARIARGNAMDYWGQGTSVTVSS VL: DIVMTQSPSSLTVTPGEKVTMSCKSSQSLFNSGNQRNYLAWYQQKPGQPPKLLIYWASTRESGVPDRFTGSGSGTDFTLTISSVQAEDLAVYYCQNDYFYPLTFGAGTKLELK | – | – | 12900 | 30.8 OD450/µg IgG | 136000 | 6.7 OD450/µg IgG
chimeric Ab 5-J22-A (antibody, V domains shown, also called 5-22-A) VH: EVQLVESGGGLVKPGGSRKLSCAASGFTFSDYGMHWVRQAPEKGLEWVAHISSGSNIIHYADTLKGRFTISRDNAKNTLFLQMTSLRSEDTAMYYCARFARGNTMDYWGQGTSVTVSS VL: DIVMTQSPSSLTVTAGEKVTMSCKSSQSLLNSGNQKNYLTWYQQKPGQPPKLLIYWASTRESGVPDRFTGSGSGTDFTLTISSVQAEDLTVYYCQNAYSFPLTFGAGTKLELK | 0.023 µg/mL | 0.065 µg/mL | – | – | – | –
chimeric Ab 7-E20-A (antibody, V domains shown) VH: EVQLVESGGGLVKPGGSRKLSCAASGFTFSDYGMHWVRQAPEKGLEWVAYISSGSSTIHYVDTMKGRFTISRDNAKNTLFLQMTSLRSEDTAMYYCARFARGNTLDYWGQGTSVTVSS VL: DIVMTQSPSSLTVTAGEKVTMSCKSSQSLFNTGNQKNYLTWYQQKPGQPPKLLIYWASTRESGVPDRFTGSGSGTDFTLTISSVQAEDLTVYYCQNGYSYPLTFGAGTKLELK | 0.05 µg/mL | 0.198 µg/mL | – | – | – | –
chimeric Ab 7-A21-A (antibody, V domains shown) VH: EVQLVESGGGLVKPGGSRKLSCAASGFTFSDYGMYWVRQAPEKGLEWLAYISSGSNTIYYADTVKGRFTISRDNAKNTLFLQMTSLRSEDTAMYYCARIARGNAMDYWGQGTSVTVSS VL: DIVMTQSPSSLTVTAGEKVTMSCKSSQSLLNSGNQKNYLTWYQQKPGQPPKLLIYWASTRESGVPDRFTGSGSGTDFTLTISSVQAEDLAVYYCQNDYIYPLTFGAGTKLGLK | 0.134 µg/mL | 0.23 µg/mL | – | – | – | –
chimeric Ab 9-C6-A (antibody, V domains shown) VH: EVQLVESGGGLVKPGGSRKLSCAASGFTFSDYGMHWVRQAPEKGLEWVAYISSGSSTIYYADTMKGRFTISRDNAKNTLFLQMTSLRSEDTAMYYCARFVRGNSMDYWGQGTSVTVSS VL: DIVMTQSPSSLTVTAGEKVTLSCKSSQSLLNSGNQKNYLTWYQQKPRQPPKLLIYWASTRESGVPDRFTGSGSGTDFTLTISNVQAEDLTVYYCQNAYSYPLTFGAGTKLELK | 0.032 µg/mL | 0.491 µg/mL | – | – | – | –
chimeric Ab 7-B15-A (antibody, V domains shown) VH: EVQLVESGGGLVKPGGSRKLSCAASGFTFSDYGMHWVRQAPEKGLEWIAHISSGSSTIYYADTMKGRFTISRDNAKNTLFLQMTSLRSEDTAMYYCARFVRGNALDYWGQGTSVTVSS VL: DIVMTQSPSSLTVTAGEKVTMNCKSSQSLLNSGNQKNYLTWYQQKPGQPPKLLIYWASTRESGVPDRFTGSGSGTDFTLTISSVQAEDLTVYYCQNGYSYPLTFGAGTKLELK | 0.032 µg/mL | 0.066 µg/mL | – | – | – | –
hybridoma clone 10-P12-A (antibody, V domains shown) VH: EIQLQQSGAELVKPGTSVKISCKASGYSFTGYNMNWVKQSHGKSLEWIGNINPYYSNTNYNQRFKGKATLTVDKSSSTAYMQLNSLTSEDSAVYYCARHVRGNSFDYWGQGTTLTVSS VL: DIVMTQSPSSLTVTAGERVTVGCKSRQSLFNSENQKNYLSWYQQKPGQPPKLLLYWTSTRESGVPERFTGSGSGTDFTLTISSVQAEDLAVYYCQNNYIYPFTFGSGTKLEIK | – | – | 20100 | 29.4 OD450/µg IgG | 131000 | 4.3 OD450/µg IgG

Other lines, results leading:

EC50 (claudin 18.2 (CLDN18.2) [1]) | EC50 (claudin 18.2 (CLDN18.2) [2]) | MFI (claudin 18.1 (CLDN18.1) [3]) | OD450/µg IgG (claudin 18.2 (CLDN18.2) [4]) | MFI (claudin 18.2 (CLDN18.2) [5]) | OD450/µg IgG (claudin 18.1 (CLDN18.1) [6]) | Binder
– | – | 8970 | 11.4 OD450/µg IgG | 60500 | 1.55 OD450/µg IgG | hybridoma clone 6-M11-A (antibody, V domains shown) VH: EVQLVESGGGSVKPGGSRKLSCAASGFTFSDYGMHWVRQAPEKGLEWVAYISSGSNTFYYTDTVKGRFTISRDNAKNTLFLQMTGLRSEDTAMYYCARFTRGNALDYWGQGTSVTVSS VL: DIVMTQSPSSLTVTAGEKVTMSCKSSQSLLNSGNQKNYLTWYQQKPGQPPKLLLYWASTRESGVPDRFTGSGSGTDFTLTISSVQAEDLTVYYCQNAYSYPLTFGAGTKLELK
– | – | 6310 | 16.8 OD450/µg IgG | 58300 | 2.22 OD450/µg IgG | hybridoma clone 2-D22-A (antibody, V domains shown) VH: EVQLVESGGGLVKPGGSRKLSCAASGFTFSDYGMHWVRQAPEKGLEWIAYISSGSSSIYYADTVKGRFTMSRDNAKKTLFLQTTSLRSEDTAMYYCARIARGNAMDYWGQGTSVTVTS VL: DIVMTQSPSSLTVTAGEKVTMSCKSSQSLLNSGNQRNYLAWYQQKPGQPPKLLIYWASTRESGVPDRFTGSGSGTDFTLTISSVQAEDLAVYYCQNDYSYPLTFGAGTKLELK
– | – | 10600 | 34.4 OD450/µg IgG | 64000 | 3.14 OD450/µg IgG | hybridoma clone 9-N14-A (antibody, V domains shown) VH: EVQLVESGGGLVKPGGSRKLSCAASGFTFSDYGMYWVRQAPEKGLEWLAYISSGSNNIYYADTVKGRFTISRDNAKNTLFLQMTSLRSEDTAMYYCARIARGNAMDYWGQGTSVIVSS VL: DIVMTQSPSSLTVTAGEKVTMSCKSSQSLLNSGNQKNYLTWYQQKPGQPPKLLIYWASTRESGVPDRFTGSGSGTDFTLTISSVQAEDLAVYYCQNDYIYPLTFGAGTKLGLK
0.075 µg/mL | 0.05 µg/mL | – | – | – | – | chimeric Ab 10-K12-A (antibody, V domains shown) VH: EVQLVESGGGLVKPGGSRKLSCAASGFTFSDYGMFWVRQAPEKGLEWVGYISSGSSNIYYADTVKGRFTISRDNAKNTLFLQMTSLRSEDTAMYYCARIARGNAMDYWGQGTSVTVSS VL: DIVMTQSPSSLTVTAGEKVTMSCKSSQSLLNSGNQKNYLTWYQQKPGQPPKLLIYWASTRESGVPDRFTGSGSGTDFTLTISSVQAEDLAIYYCQNDYFYPLTFGAGTKLELK
0.036 µg/mL | 0.059 µg/mL | – | – | – | – | chimeric Ab 1-B13-A (antibody, V domains shown) VH: QVQLQQSGAELARPGASVKLSCKASGYTFTVWSMSWVKQRTGQGLQWIGEIYPKSGNTHYNEKFKGKATLTADKSSSTVYMQLSSLTSEDSAVYFCARAYYGNSFAYWGQGTLVTVPA VL: DIVMTQSPSPLTVTAGEKATMSCKSSQSLLNSGNQRNYLTWYQQKPGQPPKLLIYWASTRESGVPDRFTGSGSGTDFSLTISSVQAEDLAVYYCQNDFIYPFTFGSGTKLEIK
